Assay [1] concerns the target T1, human Type 1 mutCALR (52 bp deletion) (human).
T1 construct: also called human mutCALR Type 1; mutant CALR
T1 chain: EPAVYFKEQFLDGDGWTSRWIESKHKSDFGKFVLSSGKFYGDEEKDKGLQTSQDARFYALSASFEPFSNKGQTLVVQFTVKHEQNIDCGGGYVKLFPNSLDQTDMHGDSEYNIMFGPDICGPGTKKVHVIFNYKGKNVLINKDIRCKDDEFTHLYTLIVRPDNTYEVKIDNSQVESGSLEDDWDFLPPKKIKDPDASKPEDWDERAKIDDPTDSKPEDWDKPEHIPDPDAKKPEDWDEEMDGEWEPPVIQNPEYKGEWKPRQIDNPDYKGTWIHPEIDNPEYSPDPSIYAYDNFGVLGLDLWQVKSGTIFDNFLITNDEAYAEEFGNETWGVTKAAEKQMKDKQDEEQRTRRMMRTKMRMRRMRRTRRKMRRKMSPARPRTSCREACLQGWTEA
Kind of assay: flow cytometry on BaF3 cells stably expressing human MPL and human mutCALR Type 1, goat anti-human R-PE secondary, GMFI. The protocol:
Approximately 200,000 cells/well were added to 96-well plates and stained with the indicated concentration of antibodies for 30 minutes on ice. Cells were then washed and stained with goat anti-human secondary conjugated to R-phycoerythrin (R-PE) (Jackson Immuno Research Laboratories) for 30 minutes on ice. The cells were then washed again and analyzed by flow cytometry.
For orientation: In flow cytometry, cells or beads pass a laser one at a time.

The target of assay [2] is T2, recombinant Flag tag_GFP_tev_hmutCALR Type 1 (human).
T2 construct: also called FLAG-GFP-tev-mutCALR
Briefly: HTRF competition: preformed complex of 5 nM Flag-GFP-mutCALR Type 1 and 80 nM His-MPL, anti-FLAG-Europium / anti-6xHis-APC, 90 min reading; blocked ligand: His-MPL. The protocol:
HTRF detection solution (2 nM anti-FLAG-Europium, and 100 nM anti-6×His-SureLight® APC) was then added and the plate was read on BMG PHERAstar FSX using kinetic HTRF protocol, obtaining readings every 15 minutes for 120 minutes total. […] Percent-of-control values were obtained by dividing the background-subtracted HTRF Ratios for each test well by the buffer control well in the same plate row.
Background: Time-resolved FRET reads energy transfer from a long-lived donor to a nearby acceptor.

The next assay has as its target MBP protein (UniProt P0AEX9 27-392 = MBP). Briefly: SPR (Biacore 8K), antibody captured on anti-human IgG (Fc), MBP injected. A general note: SPR reads the build-up and loss of mass on a sensor chip optically.

B1: AB2: anti-mutCALR antibody including VH and VL regions of antibody B3 from WO2020175689 fused to human constant regions (antibody, human IgG1, kappa, V domains shown)
VH: QVQLQQSGAELVKPGSSVKISCKASGYTFTRNFIHWIKQQPGNGLEWIGWIFPGDGDTEYNQKFNGKATLTADKSSSTAYMQLSSLTSEDSAVYFCARGNYNYEYFDYWGQGVMVTVSS
VL: DIQMTQSPASLSASLGETVSIECLASEDIYSYLAWYQQKPGKSPQLLIFAANRLQDGVPSRFSGSGSGTQFSLKISGMQPEDEGDYFCLQGSKFPYTFGPGTKLELNR
Consider B1, for which the binding result in assay [1] is listed as “binds”.

B2: AB3: anti-mutCALR antibody including the BJ095 VH region and the BJ097 VL region from WO2019178362 fused to human constant regions (antibody, human IgG1, kappa, V domains shown)
VH: QVQLVQSGAEVKKPGASVKVSCKASGYSFTGYYIHWVRQAPGQGLEWIGYISAYNGASSYNQKFKGRATFTVDTSISTAYMELSRLRSDDTAVYYCASSMDYWGQGTLVTVSS
VL: DVVMTQSPLSLPVTLGQPASISCKSSQSLLDSDGKTYLNWLQQRPGQSPKRLIYLVSKLDSGVPDRFSGSGSGTDFTLKISRVEAEDVGVYHCWQGTHFPYTFGQGTKLIEKR
B2: the binding result in assay [1] is recorded as “binds”.

B3: anti-mutCALR antibody clone 32 (antibody, human IgG1, lambda, V domains shown)
VH: QVQLVQSGAEVKKPGATVKISCKVSGYSFTDYFIHWVQQAPGKGLAWVGLVDPEDGETIYAEKFQGRVTITADTSTDTAYMELSSLRSEDTAVYYCATPGGILTDPDAFDIWGQGTMVTVSS
VL: QSALTQPASVSGSPGQSITISCTGTSSDVGGYNYVSWYQQHPGKAPKLMIYEVSNRPSGVSNRFSGSKSGNTASLTISGLQAEDEADYYCSSYTSSSTPYVFGTGTKVTVLG
notes: also called anti-mutCALR antibody 32
Turning to B3, the binding result in assay [2] was “binds”; with MBP protein, “no binding (tested: 250 nM)”.

The values above are taken from US20230272055A1 (Incyte, published 2023).
